Reference: the PETadex activity labels (doi:10.1042/bj20021862)

Substrate: Acetylcholine
Conditions: pH 7; 22 °C

| Protein | Km [µM] | kcat [s⁻¹] | kcat/Km [M⁻¹ s⁻¹] |
| --- | --- | --- | --- |
| unnamed (protein) MRPPWYPLHTPSLAFPLLFLLLSLLGGGARAEGREDPQLLVRVRGGQLRGIRLKAPGGPVSAFLGIPFAEPPVGSRRFMPPEPKRPWSGVLDATTFQNVCYQYVDTLYPGFEGTEMWNPNRELSEDCLYLNVWTPYPRPASPTPVLIWIYGGGFYSGAASLDVYDGRFLAQVEGAVLVSMNYRVGTFGFLALPGSREAPGNVGLLDQRLALQWVQENIAAFGGDPMSVTLFGESAGAASVGMHILSLPSRSLFHRAVLQSGTPNGPWATVSAGEARRRATLLARLVGCPPGGAGGNDTELIACLRTRPAQDLVDHEWHVLPQESILRISFVPVVDGDFLSDTPEALINTGDFQDLQVLVGVVKDEGSAFLVYGVPGFSKDNESLISRAQFLAGVRIGVPQASDLAAEAVVLHYTDWLHPEDPTHLRDAMSAVVGDHNVVCPVAQLAGRLAAQGARVYAYIFEHRASTLTWPLWMGVPHGYEIEFIFGLPLDPSLNYTTEERIFAQRLMKYWTNFARTGDPNDPRDSKSPQWPPYTTAAQQYVSLNLKPLEVRRGLRAQTCAFWNRFLPKLLSATDTLDEAERQWKAEFHRWSSYMVHWKNQFDHYSKQERCSDL | 69 | 250 | 3.62e+06 |
| unnamed (protein) MRPPWYPLHTPSLAFPLLFLLLSLLGGGARAEGREDPQLLVRVRGGQLRGIRLKAPGGPVSAFLGIPFAEPPVGSRRFMPPEPKRPWSGVLDATTFQNVCYQYVDTLYPGFEGTEMWNPNRELSEDCLYLNVWTPYPRPASPTPVLIWIYGGGFYSGAASLDVYDGRFLAQVEGAVLVSMNYRVGTFGFLALPGSREAPGNVGLLDQRLALQWVQENIAAFGGDPMSVTLFGESAGAASVGMHILSLPSRSLFHRAVLQSGTPNGPWATVSAGEARRRATLLARLVGCPPGGAGGNDTELIACLRTRPAQDLVDHEWHVLPQESILRASFVPVVDGDFLSDTPEALINTGDFQDLQVLVGVVKDEGSAFLVYGVPGFSKDNESLISRAQFLAGVRIGVPQASDLAAEAVVLHYTDWLHPEDPTHLRDAMSAVVGDHNVVCPVAQLAGRLAAQGARVYAYIFEHRASTLTWPLWMGVPHGYEIEFIFGLPLDPSLNYTTEERIFAQRLMKYWTNFARTGDPNDPRDSKSPQWPPYTTAAQQYVSLNLKPLEVRRGLRAQTCAFWNRFLPKLLSATDTLDEAERQWKAEFHRWSSYMVHWKNQFDHYSKQERCSDL | 190 | 183 | 965000 |
| unnamed (protein) MRPPWYPLHTPSLAFPLLFLLLSLLGGGARAEGREDPQLLVRVRGGQLRGIRLKAPGGPVSAFLGIPFAEPPVGSRRFMPPEPKRPWSGVLDATTFQNVCYQYVDTLYPGFEGTEMWNPNRELSEDCLYLNVWTPYPRPASPTPVLIWIYGGGFYSGAASLDVYDGRFLAQVEGAVLVSMNYRVGTFGFLALPGSREAPGNVGLLDQRLALQWVQENIAAFGGDPMSVTLFGESAGAASVGMHILSLPSRSLFHRAVLQSGTPNGPWATVSAGEARRRATLLARLVGCPPGGAGGNDTELIACLRTRPAQDLVDHEWHVLPQESIFRFSFVPVVDGDFLSDTPEALINTGDFQDLQVLVGVVKDEGSYFLVYGVPGFSKDNESLISRAQFLAGVRIGVPQASDLAAEAVVLHYTDWLHPEDPTHLRDAMSAVVGDHNVVCPVAQLAGRLAAQGARVYAYIFEHRASTLTWPLWMGVPHGYEIEFIFGLPLDPSLNYTTEERIFAQRLMKYWTNFARTGDPNDPRDSKSPQWPPYTTAAQQYVSLNLKPLEVRRGLRAQTCAFWNRFLPKLLSATDTLDEAERQWKAEFHRWSSYMVHWKNQFDHYSKQERCSDL | 47 | 2500 | 5.32e+07 |
| unnamed (protein) MRPPWYPLHTPSLAFPLLFLLLSLLGGGARAEGREDPQLLVRVRGGQLRGIRLKAPGGPVSAFLGIPFAEPPVGSRRFMPPEPKRPWSGVLDATTFQNVCYQYVDTLYPGFEGTEMWNPNRELSEDCLYLNVWTPYPRPASPTPVLIWIYGGGFYSGAASLDVYDGRFLAQVEGAVLVSMNYRVGTFGFLALPGSREAPGNVGLLDQRLALQWVQENIAAFGGDPMSVTLFGESAGAASVGMHILSLPSRSLFHRAVLQSGTPNGPWATVSAGEARRRATLLARLVGCPPGGAGGNDTELIACLRTRPAQDLVDHEWHVLPQESILRFSFVPVVDGDFLSDTPEALINTGDFQDLQVLVGVVKDEGSAALVYGVPGFSKDNESLISRAQFLAGVRIGVPQASDLAAEAVVLHYTDWLHPEDPTHLRDAMSAVVGDHNVVCPVAQLAGRLAAQGARVYAYIFEHRASTLTWPLWMGVPHGYEIEFIFGLPLDPSLNYTTEERIFAQRLMKYWTNFARTGDPNDPRDSKSPQWPPYTTAAQQYVSLNLKPLEVRRGLRAQTCAFWNRFLPKLLSATDTLDEAERQWKAEFHRWSSYMVHWKNQFDHYSKQERCSDL | 150 | 283 | 1.89e+06 |
| unnamed (protein) MRPPWYPLHTPSLAFPLLFLLLSLLGGGARAEGREDPQLLVRVRGGQLRGIRLKAPGGPVSAFLGIPFAEPPVGSRRFMPPEPKRPWSGVLDATTFQNVCYQYVDTLYPGFEGTEMWNPNRELSEDCLYLNVWTPYPRPASPTPVLIWIYGGGFYSGAASLDVYDGRFLAQVEGAVLVSMNYRVGTFGFLALPGSREAPGNVGLLDQRLALQWVQENIAAFGGDPMSVTLFGESAGAASVGMHILSLPSRSLFHRAVLQSGTPNGPWATVSAGEARRRATLLARLVGCPPGGAGGNDTELIACLRTRPAQDLVDHEWHVLPQESIFRLSFVPVVDGDFLSDTPEALINTGDFQDLQVLVGVVKDEGSAFLVYGVPGFSKDNESLISRAQFLAGVRIGVPQASDLAAEAVVLHYTDWLHPEDPTHLRDAMSAVVGDHNVVCPVAQLAGRLAAQGARVYAYIFEHRASTLTWPLWMGVPHGYEIEFIFGLPLDPSLNYTTEERIFAQRLMKYWTNFARTGDPNDPRDSKSPQWPPYTTAAQQYVSLNLKPLEVRRGLRAQTCAFWNRFLPKLLSATDTLDEAERQWKAEFHRWSSYMVHWKNQFDHYSKQERCSDL | 100 | 667 | 6.67e+06 |
| unnamed (protein) MRPPWYPLHTPSLAFPLLFLLLSLLGGGARAEGREDPQLLVRVRGGQLRGIRLKAPGGPVSAFLGIPFAEPPVGSRRFMPPEPKRPWSGVLDATTFQNVCYQYVDTLYPGFEGTEMWNPNRELSEDCLYLNVWTPYPRPASPTPVLIWIYGGGFYSGAASLDVYDGRFLAQVEGAVLVSMNYRVGTFGFLALPGSREAPGNVGLLDQRLALQWVQENIAAFGGDPMSVTLFGESAGAASVGMHILSLPSRSLFHRAVLQSGTPNGPWATVSAGEARRRATLLARLVGCPPGGAGGNDTELIACLRTRPAQDLVDHEWHVLPQESIFRISFVPVVDGDFLSDTPEALINTGDFQDLQVLVGVVKDEGSAFLVYGVPGFSKDNESLISRAQFLAGVRIGVPQASDLAAEAVVLHYTDWLHPEDPTHLRDAMSAVVGDHNVVCPVAQLAGRLAAQGARVYAYIFEHRASTLTWPLWMGVPHGYEIEFIFGLPLDPSLNYTTEERIFAQRLMKYWTNFARTGDPNDPRDSKSPQWPPYTTAAQQYVSLNLKPLEVRRGLRAQTCAFWNRFLPKLLSATDTLDEAERQWKAEFHRWSSYMVHWKNQFDHYSKQERCSDL | 340 | 233 | 686000 |
| unnamed (protein) MRPPWYPLHTPSLAFPLLFLLLSLLGGGARAEGREDPQLLVRVRGGQLRGIRLKAPGGPVSAFLGIPFAEPPVGSRRFMPPEPKRPWSGVLDATTFQNVCYQYVDTLYPGFEGTEMWNPNRELSEDCLYLNVWTPYPRPASPTPVLIWIYGGGFYSGAASLDVYDGRFLAQVEGAVLVSMNYRVGTFGFLALPGSREAPGNVGLLDQRLALQWVQENIAAFGGDPMSVTLFGQSAGAASVGMHILSLPSRSLFHRAVLQSGTPNGPWATVSAGEARRRATLLARLVGCPPGGAGGNDTELIACLRTRPAQDLVDHEWHVLPQESILRFSFVPVVDGDFLSDTPEALINTGDFQDLQVLVGVVKDEGSAFLVYGVPGFSKDNESLISRAQFLAGVRIGVPQASDLAAEAVVLHYTDWLHPEDPTHLRDAMSAVVGDHNVVCPVAQLAGRLAAQGARVYAYIFEHRASTLTWPLWMGVPHGYEIEFIFGLPLDPSLNYTTEERIFAQRLMKYWTNFARTGDPNDPRDSKSPQWPPYTTAAQQYVSLNLKPLEVRRGLRAQTCAFWNRFLPKLLSATDTLDEAERQWKAEFHRWSSYMVHWKNQFDHYSKQERCSDL | 100 | 167 | 1.67e+06 |
| unnamed (protein) MRPPWYPLHTPSLAFPLLFLLLSLLGGGARAEGREDPQLLVRVRGGQLRGIRLKAPGGPVSAFLGIPFAEPPVGSRRFMPPEPKRPWSGVLDATTFQNVCYQYVDTLYPGFEGTEMWNPNRELSEDCLYLNVWTPYPRPASPTPVLIWIYGGGFYSGAASLDVYDGRFLAQVEGAVLVSMNYRVGTFGFLALPGSREAPGNVGLLDQRLALQWVQENIAAFGGDPMSVTLFGESAGAASVGMHILSLPSRSLFHRAVLQSGTPNGPWATVSAGEARRRATLLARLVGCPPGGAGGNDTELIACLRTRPAQDLVDHEWHVLPQESIARFSFVPVVDGDFLSDTPEALINTGDFQDLQVLVGVVKDEGSAFLVYGVPGFSKDNESLISRAQFLAGVRIGVPQASDLAAEAVVLHYTDWLHPEDPTHLRDAMSAVVGDHNVVCPVAQLAGRLAAQGARVYAYIFEHRASTLTWPLWMGVPHGYEIEFIFGLPLDPSLNYTTEERIFAQRLMKYWTNFARTGDPNDPRDSKSPQWPPYTTAAQQYVSLNLKPLEVRRGLRAQTCAFWNRFLPKLLSATDTLDEAERQWKAEFHRWSSYMVHWKNQFDHYSKQERCSDL | 76 | 333 | 4.39e+06 |
| unnamed (protein) MRPPWYPLHTPSLAFPLLFLLLSLLGGGARAEGREDPQLLVRVRGGQLRGIRLKAPGGPVSAFLGIPFAEPPVGSRRFMPPEPKRPWSGVLDATTFQNVCYQYVDTLYPGFEGTEMWNPNRELSEDCLYLNVWTPYPRPASPTPVLIWIYGGGFYSGAASLDVYDGRFLAQVEGAVLVSMNYRVGTFGFLALPGSREAPGNVGLLDQRLALQWVQENIAAFGGDPMSVTLFGESAGAASVGMHILSLPSRSLFHRAVLQSGTPNGPWATVSAGEARRRATLLARLVGCPPGGAGGNDTELIACLRTRPAQDLVDHEWHVLPQESIFRFSFVPVVDGDFLSDTPEALINTGDFQDLQVLVGVVKDEGSAALVYGVPGFSKDNESLISRAQFLAGVRIGVPQASDLAAEAVVLHYTDWLHPEDPTHLRDAMSAVVGDHNVVCPVAQLAGRLAAQGARVYAYIFEHRASTLTWPLWMGVPHGYEIEFIFGLPLDPSLNYTTEERIFAQRLMKYWTNFARTGDPNDPRDSKSPQWPPYTTAAQQYVSLNLKPLEVRRGLRAQTCAFWNRFLPKLLSATDTLDEAERQWKAEFHRWSSYMVHWKNQFDHYSKQERCSDL | 150 | 650 | 4.33e+06 |
